Reference: patent publication US20070243184A1, “PROPHYLAXIS AND TREATMENT OF ENTEROCOLITIS ASSOCIATED WITH ANTI-CTLA-4 ANTIBODY THERAPY” (priority 2005, published 2007)

Key:
[1] = including hypothalamic-pituitary suppression; cited from earlier work
[2] = tested on: patients; assay: Clinical (antitumor) response in patients treated with MDX-010; format: in vivo, human
Source text: These adverse events, likely reflect a loss of tolerance to some self antigens, or a hyper-response to bacterial antigens present in the gut or skin, and are therefore mechanism-related and may be directly linked to the clinical antitumor activity of MDX-010.
Of note, most responses observed to date have occurred by Week 12, even in patients with initial progression. As such, all patients who receive at least one dose of MDX-010 (BMS-734016) will, whenever possible, first return for the tumor re-staging assessment at Week 12 (and not before). After patients have been treated in the Induction Phase, they will either enter the Maintenance Phase or the Follow-up Phase, depending upon whether or not they meet eligibility criteria to enter the Maintenance Phase.

[3] = tested on: patients; assay: Adverse events in patients treated with MDX-010 in clinical protocols; format: in vivo
Source text: As noted above, these adverse events are an expected consequence of inhibiting CTLA-4 function. Immune-mediated events are adverse events associated with drug exposure and consistent with an immune-based mechanism of action. In terms of organ system involvement, these events have primarily involved the GI tract (diarrhea and colitis) or the skin (rash and pruritis). Diarrhea due to treatment with MDX-010 ranges from mild to very severe and may become life-threatening. Most cases of diarrhea and colitis have resolved with symptomatic treatment or corticosteroid intervention without known sequelae. Upper GI tract involvement including ileitis, duodenitis, and esophagitis has been observed.
To date, 6 patients in total have experienced gastrointestinal perforation or bleeding requiring colectomy following treatment with MDX-010. Two of these patients had melanoma (representing 0.6% of all patients with melanoma enrolled in MDX-010 related protocols), while four patients had renal cell carcinoma (representing 7% of all patients with renal cell carcinoma enrolled in MDX-010 related protocols). One of the patients with melanoma also received concomitant dacarbazine. After developing diarrhea, they initially appeared to improve on intravenous steroids, but their symptoms worsened after they were tapered off the steroids, and stool cultures were positive for Clostridium difficile, requiring aggressive medical treatment. The patient also developed laboratory evidence of disseminated intravascular coagulopathy (DIC), and required plasma and platelet transfusions. […] The patient's post-operative course was complicated by depression and malnutrition without evidence of systemic vasculitis. The patient developed pneumonia and subsequently died.
In the renal study (MDX010-011), one patient had GI bleeding, which was treated with a colectomy. The bleeding developed after a single dose of MDX-010. The other 3 events in the MDX010-011 study occurred after the patients received 4 to 6 doses of MDX-010. One patient with a bowel perforation was successfully treated with a colectomy and an ostomy. Subsequently, the bowel was re-functionalized. The patient was taken off steroids and has maintained a partial response to their malignancy. […] The diagnosis of colitis was only made on autopsy. The third patient with a bowel perforation continued to have diarrhea and was intermittently treated with steroids. Upon the diagnosis of a non-catastrophic perforation, the patient declined surgical intervention based on the overall progression of disease. The patient opted for hospice care and ultimately died. The fourth patient developed symptoms of colitis after a single dose of MDX-010, had only intermittent steroid treatment, and ultimately underwent a colectomy for uncontrolled bleeding. Of the 3 patients who received steroid therapy, the initiation of steroid therapy was delayed due to poor patient reporting of symptoms to the investigator, and the therapy was compromised by patient non-compliance with the recommended treatment.
The overall incidence of gastrointestinal perforations and/or colectomies is less than 2% of patients.
Skin toxicity in patients receiving MDX-010 has manifested as rash and pruritis, and, when biopsied, pleomorphic infiltrates have been noted in the skin. Some patients have developed vitiligo associated with MDX-010 administration. In our studies, there have been 7 cases of hypopituitarism reported to date, presumably due to immune-mediated hypophysitis. […] The effect of high-dose corticosteroid therapy on reversing pituitary abnormalities is unknown. Ocular inflammation, specifically Grade 2 or Grade 3 episcleritis or uveitis, has been reported in 6 patients; it has occurred in conjunction with GI symptoms in 4 of these patients. In addition, primary adrenal insufficiency has been noted in 3 patients. […]

Row | Molecule | adverse effects versus systemically-acting corticosteroids [1] | time by which most responses observed to date have occurred ([2]; even in patients with initial progression) | patients developing an autoimmune-like adverse event who also experienced a clinical response ([2]; in one of the studies) | overall incidence of gastrointestinal perforations and/or colectomies ([3]; all patients) | patients in total who experienced gastrointestinal perforation or bleeding requiring colectomy ([3]; following treatment with MDX-010, all protocols, to date) | ocular inflammation (Grade 2 or Grade 3 episcleritis or uveitis) reported ([3]; human, in vivo) | primary adrenal insufficiency noted ([3]; human, in vivo) | ocular inflammation occurring in conjunction with GI symptoms ([3]; of the 6 patients with ocular inflammation) | gastrointestinal perforations or colectomies in patients with breast or prostate cancer ([3]; patients with breast or prostate cancer) | gastrointestinal perforation or bleeding requiring colectomy, share of all patients with melanoma enrolled ([3]; patients with melanoma in MDX-010 related protocols) | gastrointestinal perforation or bleeding requiring colectomy, share of all patients with renal cell carcinoma enrolled ([3]; patients with renal cell carcinoma in MDX-010 related protocols) | cases of hypopituitarism reported ([3]; presumably due to immune-mediated hypophysitis, to date)
1 | CCCC1O[C@@H]2C[C@H]3[C@@H]4CCC5=CC(=O)C=C[C@]5(C)[C@H]4[C@@H](O)C[C@]3(C)[C@]2(C(=O)CO)O1 (stereo partly drawn) [Budesonide, budesonide] | fewer adverse effects |  |  |  |  |  |  |  |  |  |  | 
2 | MDX-010: human monoclonal anti-CTLA-4 antibody (Medarex, Inc.), corresponds to monoclonal antibody 10D1; also referred to as ipilimumab |  | ≤ 12 Week | ~45% | less than 2 % of patients | 6 patients | 6 patients | 3 patients | 4 patients | no reported gastrointestinal perforations or colectomies | 0.6% | 7% | 7 cases
